“Also recorded” adds a separate entry of the source.
Tests used:
HeLa cell = assay: Luminescence intensity of luciferase expressed in HeLa cell, comparison with P. pyralis luciferase (Example 3); format: cell-based; details: 2 mM D-luciferin, 25° C., 90 min after starting measurement
Protocol: Each of the wild type luciferase derived from L. accensa, the mutant luciferase derived from L. accensa (N50D and 1530R), and the luciferase derived from P. pyralis (SEQ ID NO: 33) was expressed in a HeLa cell, and the luminescence intensity was measured and compared to each other.
Further, since the pF9A vector contains the luciferase gene derived from Renilla reniformis as an internal control, it is possible to obtain the luminescence intensity from the luminescent gene inserted to the multicloning site as a ratio compared to the luminescence intensity emitted by the Renilla luciferase.
Three types of plasmids obtained in such a manner described above were each subjected to gene transfection to a HeLa cell, which has been inoculated in a 24-well plate, by a lipofection method, and 24 hours later, the cells were washed with PBS. To each well of a 24-well plate, 500 μL of 2 mM D-luciferin/CO2 Independent Medium (manufactured by Invitrogen) was added and the luminescence intensity was measured for 90 min by using a Luminescensor (manufactured by ATTO Corporation) under the condition including 25° C. and 1 sec per each well. The luminescence intensity which is obtained at the time point of 90 min after starting the measurement was taken as the luminescence intensity of the wild type luciferase, the mutant luciferase, and P. pyralis luciferase. […] Subsequently, 500 μL of 10 μM coelenterazine/CO2 Independent Medium was added to each well and the luminescence intensity was measured for 30 min by using a Luminescensor under the condition including 25° C. and 1 sec per each well. The luminescence intensity obtained at five minutes after the addition of coelenterazine was taken as luminescence intensity of the Renilla luciferase, which is an internal control. Each of the luminescence intensity from the wild type luciferase, the mutant luciferase, and P. pyralis luciferase was divided by the luminescence intensity of the Renilla luciferase, and the results are illustrated as a graph illustrating the luminescence intensity of each luciferase.

HeLa cells = assay: Luminescence intensity of luciferase expressed in HeLa cells, comparison with L. biplagiata luciferase (Example 5); format: cell-based; details: 2 mM D-luciferin, 37° C., 90 min
Text: The luminescence intensity from the light emitting reaction using the wild type luciferase derived from L. accensa (SEQ ID NO: 1) was compared to the luminescence intensity from the light emitting reaction using the luciferase derived from L. biplagiata having the literature sequence (SEQ ID NO: 30) or the luciferase derived from L. biplagiata having the cloned sequence (SEQ ID NO: 31). Further, based on the difference between the literature sequence and the cloned sequence, the amino acid residue at position 249 of the amino acid sequence of the wild type luciferase, i.e., methionine, was changed to lysine to prepare the mutant luciferase (M249K), which was then used for the intensity measurement.
With regard to the four types of the luciferase, a nucleic acid containing a gene optimized for mammalian cell expression was given with a Kozak sequence, and then inserted between SgfI and PmeI sites within the multicloning site of pF9A CMV hRLuc neo Flexi vector (manufactured by Promega). Further, since the pF9A vector contains the luciferase gene derived from Renilla reniformis as an internal control in the vector sequence, it is possible to obtain the luminescence intensity from the luminescent gene inserted to the multicloning site as a ratio compared to the luminescence intensity emitted by the Renilla luciferase.
Four types of luciferase plasmids obtained in such a manner described above were each subjected to gene transfection to HeLa cells inoculated in a 48-well plate by a lipofection method, and 24 hours later, the cells were washed with PBS. To each well of a 48-well plate, 500 μL of 2 mM D-luciferin/CO2 Independent Medium (manufactured by Invitrogen) was added and the luminescence intensity was measured for 90 min by using a Luminescensor (manufactured by ATTO Corporation) under the condition including 37° C. and 1 sec per each well. The luminescence intensity which is obtained at the time point of 90 min after starting the measurement was taken as the luminescence intensity of each luciferase. […] Subsequently, 500 μL of 10 μM coelenterazine/CO2 Independent Medium was added to each well and the luminescence intensity was measured for 30 min by using a Luminescensor under the condition including 37° C. and 1 sec per each well. The luminescence intensity obtained at five minutes after the addition of coelenterazine was taken as luminescence intensity of the Renilla luciferase, which is an internal control. Each of the luminescence intensities from the luciferases was divided by the luminescence intensity of the Renilla luciferase, yielding the luminescence intensity of each luciferase. The measurements were carried out multiple times for each luciferase, and the luminescence intensity was obtained as a mean value.

[1] = Stability against degradation: SDS-polyacrylamide gel electrophoresis of lysate of E. coli expressing each luciferase (Example 4); details: lysate of E. coli BL21 (DE3) CodonPlus expressing the luciferase
Protocol: Stability against degradation was determined for the wild type luciferase derived from L. accensa in comparison with a known luciferase derived from L. biplagiata.
The above three genes were introduced into an expression vector and expressed in E. coli. The expression was carried out in the same manner as the Example 2 except that BL21 (DE3) CodonPlus (manufactured by Stratagene Corporation) was used as E. coli strain and the cells were cultured appropriately.
The lysate was prepared from the E. coli expressing each gene, and then subjected to SDS-polyacrylamide gel electrophoresis. It was confirmed that, as a band with the biggest size, a single band is present near 70 kDa for all three kinds of protein. […] Meanwhile, in the luciferase derived from L. biplagiata (i.e., left and right lanes), several bands with a size smaller than 70 kDa were identified.

[2] = test system: E. coli JM109 (DE3) strain; assay: Temperature dependency of luminescence intensity: E. coli colonies heat treated at 55° C., CCD image (Example 7); format: cell-based, Escherichia coli; details: 55° C. for 1 hour, 0.5 mM D-luciferin spray
Protocol: Each of the wild type luciferase gene and two kinds of the mutant gene obtained in the Example 6 was introduced into pRSET-B vector and transformed to E. coli JM109 (DE3) strain to form a colony. Thus-obtained colony was cultured and applied on a LB agar medium to form again the colony for 24 hours. After that, it was subjected to the heat treatment at 55° C. for 1 hour and kept at room temperature for 1 hour. It was then sprayed with a liquid containing 0.5 mM D-luciferin and a photographic image thereof was taken for 1 min by using a CCD camera (trade name: DP70, manufactured by Olympus Corporation).

[3] = Measurement of light emission spectra of purified luciferase under various pH environments; format: biochemical; details: light emission spectra at various pH
Protocol: With use of LumiFlSpectroCapture (manufactured by ATTO Corporation) as an apparatus for measurement, to a solution of 0.1 M citric acid/0.1 M Na2HPO4 buffer (pH 5.5 to 8.0) containing 1 mM of D-luciferin, 2 mM of ATP and 4 mM of MgCl2 the purified enzyme was added at a final concentration of 1 μg/mL, and after 15 seconds of addition of the enzyme luminescence spectra was measured. The measurement results were illustrated in FIG. 1.
After that, each of thus-prepared genes (SEQ ID NOs: 38 and 39) was introduced into pRSET-B vector according to the same method as the Example 2. This vector was transformed to E. coli JM109 (DE3) strain to express the mutant luciferase. Subsequently, the mutant luciferase was purified from E. coli. In addition, under various pH environments, the light emission spectrum was measured according to the same method as the Example 2 from a light emitting reaction catalyzed by the mutant luciferase.

B1: P. pyralis luciferase: existing luciferase derived from Photinus pyralis (SEQ ID NO: 33) (protein, listed as Photinus pyralis)
chain: MEDAKNIKKGPAPFYPLEDGTAGEQLHKAMKRYALVPGTIAFTDAHIEVDITYAEYFEMSVRLAEAMKRYGLNTNHRIVVCSENSLQFFMPVLGALFIGVAVAPANDIYNERELLNSMGISQPTVVFVSKKGLQKILNVQKKLPIIQKIIIMDSKTDYQGFQSMYTFVTSHLPPGFNEYDFVPESFDRDKTIALIMNSSGSTGLPKGVALPHRTACVRFSHARDPIFGNQIIPDTAILSVVPFHHGFGMFTTLGYLICGFRVVLMYRFEEELFLRSLQDYKIQSALLVPTLFSFFAKSTLIDKYDLSNLHEIASGGAPLSKEVGEAVAKRFHLPGIRQGYGLTETTSAILITPEGDDKPGAVGKVVPFFEAKVVDLDTGKTLGVNQRGELCVRGPMIMSGYVNNPEATNALIDKDGWLHSGDIAYWDEDEHFFIVDRLKSLIKYKGYQVAPAELESILLQHPNIFDAGVAGLPDDDAGELPAAVVVLEHGKTMTEKEIVDYVASQVTTAKKLRGGVVFVDEVPKGLTGKLDARKIREILIKAKKGGKIAV
luminescence intensity (divided by luminescence intensity of Renilla luciferase internal control) (HeLa cell): 6.6

B2: mutant luciferase (N50D and I530R): L. accensa luciferase mutant with N50D and I530R, amino acid sequence SEQ ID NO: 2 (protein, listed as Lucidina accensa)
chain: MEEDKNILRGPAPFYPLEDGTAGEQLHRAMKRYALIPGTIAFTDAHAGVDITYSEYFEMACRLAESLKRYGLGLQHRIVVCSENSLQFFMPVVGALFIGVGVAPANDIYNERELLNSMTISQPTLVFCSRKGLQKILNVQKKLPVIQKIIILDTKEDYMGFQSMYSFVDSQLPVGFNEYDYVPDSFDRDQATALIMNSSGSTGLPKGVELNHTSVCVRFSHCRDPVYGNQIIPDTAILSVIPFHHGFGMFTTLGYLICGFRVVLMYRFEEELFLRSLQDYKIQSALLVPTLFSFFAKSTLIDKYDLSNLHEIASGGAPLAKEVGEAVAKRFNLRGIRQGYGLTETTSAVIITPEGDDKPGAVGKVVPFFSAKVVDLDTGKTLGVNQRGELCLKGPMIMKGYVNNPEATNALIDKDGWLHSGDISYWDEDGHFFIVDRLKSLIKYKGYQVPPAELESILLQHPFIFDAGVAGIPDDEAGELPAAVVVLEEGKTMTEKEIMDYVAGQVTTAKRLRGGVVFVDEVPKGLTGKRDARKIREILVKVKKTKSKL
luminescence intensity (divided by luminescence intensity of Renilla luciferase internal control) (HeLa cell): 26.5

B3: L. Biplagiata (literature sequence): luciferase derived from L. biplagiata, sequence disclosed in the literature (Oba et al. 2010), lysine at position 249 (protein, listed as Lucidina biplagiata)
chain: MEEDKNILRGPAAFYPLEDGTAGEQLHRAMKRYALIPGTIAFTDAHAGVNITYSEYFEMACRLAESLKRYGLGLQHRIVVCSENSLQFFMPVVGALFIGVGVAPANDIYNERELLNSMTISQPTLVFCSRKGLQKILNVQKKLPVIQKIIILDTKEDYMGFQSMYSFVDSQLPVGFNEYDYVPDSFDRDQATALIMNSSGSTGLPKGVELTHTSVCVRFSHCRDPVFGNQIIPDTAILSVIPFHHGFGKFTTLGYLICGFRVVLMYRFEEELFLRSLQDYKIQSALLVPTLFSFFAKSTLIDKYDLSNLHEIASGGAPLAKEVGEAVAKRFNLRGIRQGYGLTETTSAVIITPEGDDKPGAVGKVVPFFSAKVVDLDTGKTLGVNQRGELCLKGPMIMKGYVNNPEATNALIDKDGWLHSGDISYWDEDGHFFIVDRLKSLIKYKGYQVPPAELESILLQHPFIFDAGVAGIPDDEAGELPAAVVVLEEGKTMTEKEIMDYVAGQVTTAKRLRGGVVFVDEVPKGLTGKLDARKIREILVKAKKTKSKL
luminescence intensity, mean value (divided by Renilla luciferase intensity) (HeLa cells): 0.12
stability against protein degradation (bands on stained SDS-PAGE gel) [1]: stained in a smear shape in the region of 70 kDa or less

B4: mutant luciferase (F294Y, V323L, and E354V): L. accensa luciferase mutant with F294Y, V323L and E354V, amino acid sequence SEQ ID NO: 34 (protein, listed as Lucidina accensa)
chain: MEEDKNILRGPAPFYPLEDGTAGEQLHRAMKRYALIPGTIAFTDAHAGVNITYSEYFEMACRLAESLKRYGLGLQHRIVVCSENSLQFFMPVVGALFIGVGVAPANDIYNERELLNSMTISQPTLVFCSRKGLQKILNVQKKLPVIQKIIILDTKEDYMGFQSMYSFVDSQLPVGFNEYDYVPDSFDRDQATALIMNSSGSTGLPKGVELNHTSVCVRFSHCRDPVYGNQIIPDTAILSVIPFHHGFGMFTTLGYLICGFRVVLMYRFEEELFLRSLQDYKIQSALLVPTLFSYFAKSTLIDKYDLSNLHEIASGGAPLAKELGEAVAKRFNLRGIRQGYGLTETTSAVIITPVGDDKPGAVGKVVPFFSAKVVDLDTGKTLGVNQRGELCLKGPMIMKGYVNNPEATNALIDKDGWLHSGDISYWDEDGHFFIVDRLKSLIKYKGYQVPPAELESILLQHPFIFDAGVAGIPDDEAGELPAAVVVLEEGKTMTEKEIMDYVAGQVTTAKRLRGGVVFVDEVPKGLTGKIDARKIREILVKVKKTKSKL
light emission compared to the wild type luciferase at 55° C. [2]: stronger light emission; also recorded: higher luminescence intensity
pH environment giving the highest luminescence intensity [3]: 7.4 pH
